Assays:
[1] = tested on: Nc1nc2c(ncn2[C@@H]2O[C@@H]3CO[P@](=O)(O)O[C@H]4[C@@H](O)[C@H](n5cnc6c(=O)[nH]c(N)nc65)O[C@@H]4CO[P@](=O)(O)O[C@H]3[C@H]2O)c(=O)[nH]1; test: purified protein
[2] = tested on: Nc1nc2c(ncn2[C@@H]2O[C@H](COP(=O)(O)O[C@H]3[C@@H](O)[C@H](n4cnc5c(=O)[nH]c(N)nc54)O[C@@H]3COP(=O)(O)O)[C@@H](O)[C@H]2O)c(=O)[nH]1; test: purified protein; settings: Mg2+ and/or Mn2+
[3] = molecular target: T1, PA4781HD-GYP (Pseudomonas aeruginosa, UniProt Q9HV27); test: RP-HPLC of nucleotides, turnover; type: biochemical; settings: REC domain removed, not phosphorylated; pH 8, 30 °C, Mg2+ and/or Mn2+
T1 construct: gene PA4781; HD-GYP domain, first 111 residues (REC domain) removed, His-tag (pET28b), E. coli BL21(DE3); mainly monomer
T1 sequence (Q9HV27 112-393): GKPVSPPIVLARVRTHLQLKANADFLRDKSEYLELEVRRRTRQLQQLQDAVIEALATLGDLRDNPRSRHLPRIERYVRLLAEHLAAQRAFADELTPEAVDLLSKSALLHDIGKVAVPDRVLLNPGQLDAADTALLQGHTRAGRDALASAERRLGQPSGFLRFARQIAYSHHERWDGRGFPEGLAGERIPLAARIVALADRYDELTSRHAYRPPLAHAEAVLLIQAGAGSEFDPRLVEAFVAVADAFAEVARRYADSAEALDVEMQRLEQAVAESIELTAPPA

[4] = 10 mM MgCl2 and 2.5 mM MnCl2, 50 mM Tris-HCl pH 8, 150 mM NaCl, 30 °C, 0.64 µM enzyme
[5] = 50 mM Tris-HCl pH 8, 150 mM NaCl, 30 °C, may be apparent value (about 30% c-di-GMP still bound to protein)
[6] = protein phosphorylated with acetyl phosphate (extent unknown), pH 8, 30 °C

In the case of PA4108 (Pseudomonas aeruginosa PAO1), the Km [1, 4] is reported as 20 ± 5 µM, the kcat [1, 4] is reported as 0.00015 ± 1e-05 s⁻¹ and the Km [2, 5] is reported as 30 ± 9 µM. The kcat [2, 5] was 1.2±0.1x10^-3 s^-1.

PA4781 (Pseudomonas aeruginosa PAO1) was tested, and the Km ([1]; protein phosphorylated with acetyl phosphate (extent unknown), 10 mM MgCl2, pH 8, 30 °C) was 119 ± 30 µM, the Km [2, 6] was 27 ± 8 µM and the kcat [2, 6] was 7.7±1x10^-4 s^-1.

In the case of Nc1nc2c(ncn2[C@@H]2O[C@@H]3COP(=O)(O)O[C@H]4[C@@H](O)[C@H](n5cnc6c(=O)[nH]c(N)nc65)O[C@@H]4COP(=O)(O)O[C@H]3[C@H]2O)c(=O)[nH]1 [c-di-GMP], the “RP-HPLC of nucleotides, turnover” value [3] is reported as “displays little, but significant PDE activity”.
